# Laboratory results reported in publication PMC314469, “Protein Interaction Networks by Proteome Peptide Scanning” (PLoS Biology, 2004).
# T1: Myo5 SH3 (MYO5_YEAST), Q04439
# T1 chain: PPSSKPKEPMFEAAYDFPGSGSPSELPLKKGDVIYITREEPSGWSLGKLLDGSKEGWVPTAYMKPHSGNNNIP
# T2: Rvs167 SH3 (RV167_YEAST), P39743
# T2 chain: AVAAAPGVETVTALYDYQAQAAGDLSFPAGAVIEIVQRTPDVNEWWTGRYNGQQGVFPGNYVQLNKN
# T3: Boi1 SH3 (BOI1_YEAST), P38041
# T3 chain: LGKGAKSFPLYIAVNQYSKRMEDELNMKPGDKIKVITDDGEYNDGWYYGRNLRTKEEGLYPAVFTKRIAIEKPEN
# T4: Boi2 SH3 (BOI2_YEAST), P39969
# T4 chain: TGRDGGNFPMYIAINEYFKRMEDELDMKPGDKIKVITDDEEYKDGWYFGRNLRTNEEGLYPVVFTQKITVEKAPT
# T5: Yfr024 SH3 (LSB3_YEAST), P43603
# T5 chain: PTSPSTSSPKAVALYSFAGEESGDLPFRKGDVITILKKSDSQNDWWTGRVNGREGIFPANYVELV
# T6: Yhr016c SH3 (YSC84_YEAST), P32793
# T6 chain: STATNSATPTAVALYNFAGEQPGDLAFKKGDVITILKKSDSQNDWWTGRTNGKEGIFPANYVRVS
# B1: YBR055C 389-402 (peptide)
# chain: NSFRKILPQEPEIW
# B2: YMR067C 383-396 (peptide)
# chain: NTINKSNPQGPSDN
# B3: YPR029C 360-373 (peptide)
# chain: NTLLKVVPQEPTAV
# B4: YDR223W 8-21 (peptide)
# chain: NSTVRRKPHSPNKK
# B5: YGR123C 104-117 (peptide)
# chain: NVLLKAKPNDPAAT
# B6: YFL036W 156-169 (peptide)
# chain: NSFSKNDPNFPILK
# B7: YKL178C 251-264 (peptide)
# chain: NTIIKFDPGRPIYN
# B8: YLR142W 90-103 (peptide)
# chain: NTIIKLFPYIPIPV
# Biological target: T1, Myo5 SH3 (MYO5_YEAST), Q04439
# Experiment: SPOT array
row,Binder,"normalised SPOT signal, Boehringer light units (BLU); mean over the file's lines of this peptide"
1,B1,235
2,B2,76.2
3,B3,154
4,B4,956
5,B5,156
6,B6,160
7,B7,272
8,B8,204

# Biological target: Sho1 SH3 (SHO1_YEAST), P40073
# Experiment: SPOT array
# Chain of Sho1 SH3 (SHO1_YEAST), P40073 (P40073 295-366): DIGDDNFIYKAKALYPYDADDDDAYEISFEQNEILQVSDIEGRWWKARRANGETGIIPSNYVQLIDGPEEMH
row,Binder,"normalised SPOT signal, Boehringer light units (BLU); mean over the file's lines of this peptide"
1,B1,1820
2,B2,57.6
3,B3,75.6
4,B4,147
5,B5,126
6,B6,106
7,B7,144
8,B8,42.7

# Biological target: T2, Rvs167 SH3 (RV167_YEAST), P39743
# Experiment: SPOT array
row,Binder,"normalised SPOT signal, Boehringer light units (BLU); mean over the file's lines of this peptide"
1,B1,524
2,B2,93.5
3,B3,62.5
4,B4,722
5,B5,121
6,B6,82.4
7,B7,72.3
8,B8,60.5

# Biological target: T3, Boi1 SH3 (BOI1_YEAST), P38041
# Experiment: SPOT array
row,Binder,"normalised SPOT signal, Boehringer light units (BLU); mean over the file's lines of this peptide"
1,B1,1170
2,B2,310
3,B3,1110
4,B4,481
5,B5,1780
6,B6,203
7,B7,49.7
8,B8,88.2

# Biological target: T4, Boi2 SH3 (BOI2_YEAST), P39969
# Experiment: SPOT array
row,Binder,"normalised SPOT signal, Boehringer light units (BLU); mean over the file's lines of this peptide"
1,B1,219
2,B2,30.9
3,B3,62.6
4,B4,102
5,B5,29.5
6,B6,34.2
7,B7,17.6
8,B8,29.7

# Biological target: T5, Yfr024 SH3 (LSB3_YEAST), P43603
# Experiment: SPOT array
row,Binder,"normalised SPOT signal, Boehringer light units (BLU); mean over the file's lines of this peptide"
1,B1,1280
2,B2,163
3,B3,116
4,B4,821
5,B5,63.4
6,B6,58.8
7,B7,63.3
8,B8,84.5

# Biological target: T6, Yhr016c SH3 (YSC84_YEAST), P32793
# Experiment: SPOT array
row,Binder,"normalised SPOT signal, Boehringer light units (BLU); mean over the file's lines of this peptide"
1,B1,1260
2,B2,46.5
3,B3,311
4,B4,1830
5,B5,310
6,B6,57.1
7,B7,10.4
8,B8,211
